Reference: paper PMC8221637 (Science Advances, 2021)

Biological target: the molecule itself
Assay: SEC

B1: recombinant His-PIPKIγ (enzyme)
chain: MELEVPDEAESAEAGAVPSEAAWAAESGAAAGLAQKKAAPTEVLSMTAQPGPGHGKKLGHRGVDASGETTYKKTTSSTLKGAIQLGIGYTVGHLSSKPERDVLMQDFYVVESIFFPSEGSNLTPAHHFQDFRFKTYAPVAFRYFRELFGIRPDDYLYSLCNEPLIELSNPGASGSLFYVTSDDEFIIKTVMHKEAEFLQKLLPGYYMNLNQNPRTLLPKFYGLYCVQSGGKNIRVVVMNNILPRVVKMHLKFDLKGSTYKRRASKKEKEKSFPTYKDLDFMQDMPEGLLLDADTFSALVKTLQRDCLVLESFKIMDYSLLLGVHNIDQHERERQAQGAQSTSDEKRPVGQKALYSTAMESIQGGAARGEAIESDDTMGGIPAVNGRGERLLLHIGIIDILQSYRFIKKLEHTWKALVHDGDTVSVHRPSFYAERFFKFMSNTVFRKNSSLKSSPSKKGRGGALLAVKPLGPTAAFSASQIPSEREEAQYDLRGARSYPTLEDEGRPDLLPCTPPSFEEATTASIATTLSSTSLSIPERSPSETSEQPRYRRRTQSSGQDGRPQEEPPAEEDLQQITVQVEPACSVEIVVPKEEDAGVEASPAGASAAVEVETASQASDEEGAPASQASDEEDAPATDIYFFTDGRYWIYSPRHRRLRAVTLSASGTPTDERSWVYSPLHYSAQAPPASDGESDT
- stoichiometry N: 2
